Key:
rat GDF-15 = target: T1, rat GDF-15 (rat, UniProt Q9Z0J6 189-303, limits assumed); assay: SPR, Biacore T3000, antibody captured by anti-human IgG Fc, GDF-15 injected
T1 construct: the construct used in SPR is not described
T1 sequence (looked up): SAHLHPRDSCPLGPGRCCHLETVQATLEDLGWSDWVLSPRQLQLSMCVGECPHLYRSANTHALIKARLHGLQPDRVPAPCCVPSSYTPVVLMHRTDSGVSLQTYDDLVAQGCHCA
Experimental: (§1) Affinity of CTL-002 to recombinant human GDF-15 was determined by measuring surface plasmon resonance on a Biacore T3000. In addition, the affinity to cynomolgus rat and mouse GDF-15 was measured (see Table 2).
(§2) All experiments were performed in 10 mM HEPES buffer, pH 7.4, 150 mM NaCl, 3.4 mM EDTA and 0.05% Tween. anti-human IgG Fc specific antibody (Jackson, Order #109-005-008, Lot #111148) was covalently immobilized by EDC/NHS chemistry on Biacore CM5 Chips (GE Healthcare, Order #61144275, Lot #10236645). For kinetic characterization of the antigen-antibody interaction pulses of increasing GDF-15 concentrations (e.g. 156.3 pM, 312 pM, 625 pM, 1,250 pM) were injected at a flow rate of 30 μl/min. After each measurement cycle (8 min of association followed by 30 min of dissociation) the antibody-antigen complex was resolved by regeneration of the surface with 10 mM glycine-HCl at pH 2.0. For calculation of the dissociation constant of CTL-002 the association and dissociation phases were recorded and evaluated by global fitting using the software BIAevaluation 4.1. For global fit analysis only, these antigen concentrations were taken into account, which allowed the analysis following the Langmuir 1:1 binding model or 1:1 binding with drifting baseline.

recombinant human GDF-15 [1] = target: T2, recombinant human GDF-15 (human, Disulfide-linked homodimer: two copies of this chain form the 24.6 kDa molecule of Table 1.); assay: as above
T2 construct: also called hGDF-15; Growth Differentiation Factor-15
T2 chain: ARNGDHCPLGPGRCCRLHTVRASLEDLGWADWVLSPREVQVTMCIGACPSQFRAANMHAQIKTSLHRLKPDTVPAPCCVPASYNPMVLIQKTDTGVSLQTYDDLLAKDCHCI
Experimental: as §1, §2

mouse GDF-15 = target: T3, mouse GDF-15 (mouse, UniProt Q9Z0J7 189-303); assay: as above
T3 construct: the construct used in SPR is not described; also called mGDF-15; murine GDF-15
T3 sequence (looked up): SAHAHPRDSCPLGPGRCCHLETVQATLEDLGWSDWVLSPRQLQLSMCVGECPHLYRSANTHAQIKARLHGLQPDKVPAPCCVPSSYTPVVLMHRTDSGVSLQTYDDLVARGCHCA
Experimental: as §1, §2

[2] = target: cynomolgus GDF-15 (cynomolgus monkey); assay: as above
recombinant human GDF-15 [3] = target: T2, recombinant human GDF-15; assay: cell-based or functional assay

B1: CTL-002 (antibody, human IgG4 S228P, kappa, V domains shown)
VH: QITLKESGPTLVKPTQTLTLTCTFSGFSLSTSGMGVSWIRQPPGKGLEWLAHIYWDDDKRYNPTLKSRLTITKDPSKNQVVLTMTNMDPVDTATYYCARSSYGAMDYWGQGTLVTVSS
VL: DIVLTQSPSFLSASVGDRVTITCKASQNVGTNVAWFQQKPGKSPKALIYSASYRYSGVPDRFTGSGSGTEFTLTISSLQPEDFAAYFCQQYNNFPYTFGGGTKLEIKR
notes: Humanized, hinge-stabilized IgG4 (IgG4 S228P) derived from mouse antibody B1-23; captured by anti-human IgG Fc on the chip in the SPR assay; also called visugromab; CTL-001 IgG4*
Kd (rat GDF-15): 0.449 nM
Kd (recombinant human GDF-15 [1]): 0.0383 nM
Kd (mouse GDF-15): 9.76 nM
Kd [2]: 0.108 nM
EC50 of CTL-002 in the flow-adhesion assay with T cells (recombinant human GDF-15 [3]): 0.707 µg/mL
EC50 of rescue of CD8+ T-cell adhesion, flow-adhesion assay (recombinant human GDF-15 [3]): ~0.7 µg/mL

From patent US20250304673A1 (CATALYM, published 2025)
